Assay results: patent US9707267B2, “Beta-turn peptidomimetic cyclic compounds for treating dry eye” (Mimetogen Pharmaceuticals, Inc., priority 2008, dated 2017)

Experiments:
[1] = test system: scopolamine induced dry eye model; assay: Scopolamine induced dry eye model, Schirmer test (Example 3); format: in vivo, rat; settings: single topical instillation of 1% on day eight; measured day thirteen
Experimental: (§1) Dry eye was induced using scopolamine (Sigma-Aldrich, St. Louis, Mo.), which was continuously and systemically delivered to the animals via an osmotic pump (2ML4 Alzet®; CedarLane, Burlington, Ontario) filled with scopolamine and implanted subcutaneously in the mid dorsal area between the scapulae. The wound was closed with 2-3 wound clips. After the surgery and again the next day, the animals were subcutaneously injected with Carprofen (0.5 mg/100 g) a non-steroidal anti-inflammatory drug and potent, long-acting analgesic in rodents. Animals were anaesthetized before the surgical pump implantation and before all clinical endpoint testing in an Isofluorane 99.9% USP (Abraxis Bioscience, Richmond Hill, Ontario) chamber. […]
Tear production was measured with Zone-Quick standardized phenol-red threads (FCI Ophthalmics, Marshfield Hills, Mass.) on animals lightly sedated with Isoflurane. […] The length of the stained moistened portion of the thread was measured in millimeters, using the scale provided with the threads to an accuracy of 1 mm. […]

[2] = test system: scopolamine induced dry eye model; assay: Scopolamine induced dry eye model, tear fluorescein clearance (Example 3); format: in vivo, rat; settings: single topical instillation of 1% on day eight; measured day thirteen
Experimental: as §1
Tear fluorescein clearance was evaluated as described for humans (Afonso, A A. et al., “Correlation of Tear Fluorescein Clearance and Schirmer Test Scores with Ocular Irritation Symptoms,” Ophthalmology 106:803-810 (1999), the entire content of which is incorporated herein by reference) and modified for rats (Chen, W. et al., “Keratoconjunctivitis Sicca Modifies Epithelial Stem Cell Proliferation Kinetics in Conjunctiva,” Cornea 26:1101-1106 (2007), the entire content of which is incorporated herein by reference). […] The length of cotton wetting in mm determined the volume of the collected tear fluid. […]

[3] = Scopolamine induced rat dry eye model, body weights (Example 5); format: in vivo; settings: ± SD
Experimental: After the surgery and again the next day, the animals were subcutaneously injected with Caprofen (0.5 mg/100 g) a non-steroidal anti-inflammatory drug and potent, long-acting analgesic in rodents. Animals were weighed prior to pump implantation on Day−1, and then once a week for four weeks. This dosing regimen was reported to induce dry eye in rats (Viau S et al., “Time course of ocular surface and lacrimal gland changes in a new scopolamine-induced dry eye model,” Graefes Arch Clin Exp Ophthalmol., 246:857-867 (2008), the entire content of which is incorporated herein by reference).
There were no mortalities. […] Conjunctival congestion and conjunctival bloody discharge usually resolved the next day, but conjunctival swelling continued throughout the study. Pre-treatment, mean body weight was approximately 400 g, and was not statistically different among groups (p=0.3927) (Table 10). Mean body weight in the untreated control groups (G1) increased to approximately 575 g throughout the study. In the five groups receiving scopolamine (G2-G6), mean body weight increased to approximately 425 to 450 g. There was a statistically significant effect of treatment to decrease body weight starting on Day 14, continuing through Day 28 (p<0.0001 to 0.0426) (FIG. 24).

Row | Molecule | aqueous tear production, Schirmer test (in words) [1] | aqueous tear turnover, fluorescein clearance (in words) [2] | Body Weights ([3]; 0.00053% group, Day −1, pre-treatment) | Body Weights ([3]; scopolamine + 0.00053% topical 1× daily Days 5-21, Day 7) | Body Weights ([3]; scopolamine + 0.00053% topical 1× daily Days 5-21, Day 14) | Body Weights ([3]; scopolamine + 0.00053% topical 1× daily Days 5-21, Day 20) | Body Weights ([3]; scopolamine + 0.00053% topical 1× daily Days 5-21, Day 29)
1 | NCCCC[C@@H]1NC(=O)[C@H](CCC(=O)O)NC(=O)c2cc([N+](=O)[O-])ccc2OCCC(C(=O)NCC(=O)O)NC1=O (stereo partly shown) [Compound D3] | no effect on aqueous tear production | no effect on aqueous tear turnover | – | – | – | – | –
2 | NGF: nerve growth factor (recombinant human), positive control | – | – | 417 ± 16 g | 396 ± 20 g | 399 ± 18 g | 417 ± 16 g | 438 ± 22 g
